Values of other authors in publication PMC3978290.
Values joined by “and” are separate entries in the source; they are usually repeats but may differ in a detail not shown here. Equal entries are not always repeated.

Key:
[1] = target: Complement factor H (Homo sapiens) (UniProt P08603); test: sedimentation equilibrium
[2] = target: C-reactive protein (Homo sapiens) (UniProt P02741); test: SPR
C3b C3b (Homo sapiens) = C3b C3b (Homo sapiens) (UniProt P01024); test: SPR
C3u C3u (Homo sapiens) = C3u C3u (Homo sapiens) (UniProt P01024); test: sedimentation velocity
Sequence of C3u C3u (Homo sapiens) (P01024 23-667, chain 1 of 2): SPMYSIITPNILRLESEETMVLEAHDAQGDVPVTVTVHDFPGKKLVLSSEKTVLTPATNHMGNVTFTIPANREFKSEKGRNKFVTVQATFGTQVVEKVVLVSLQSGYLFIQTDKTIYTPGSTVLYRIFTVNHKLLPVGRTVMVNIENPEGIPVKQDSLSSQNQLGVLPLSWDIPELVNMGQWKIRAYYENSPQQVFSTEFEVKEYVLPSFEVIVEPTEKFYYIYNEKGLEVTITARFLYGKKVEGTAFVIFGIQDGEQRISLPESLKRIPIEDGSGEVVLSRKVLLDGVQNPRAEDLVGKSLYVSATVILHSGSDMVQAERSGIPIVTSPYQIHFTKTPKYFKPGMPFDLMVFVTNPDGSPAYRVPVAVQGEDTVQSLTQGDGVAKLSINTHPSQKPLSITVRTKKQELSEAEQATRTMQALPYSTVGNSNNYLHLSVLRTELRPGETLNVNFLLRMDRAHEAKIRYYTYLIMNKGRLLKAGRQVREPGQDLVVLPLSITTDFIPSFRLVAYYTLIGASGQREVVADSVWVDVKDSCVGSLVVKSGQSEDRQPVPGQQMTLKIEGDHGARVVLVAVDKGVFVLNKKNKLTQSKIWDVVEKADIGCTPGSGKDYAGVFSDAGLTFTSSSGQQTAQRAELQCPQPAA
Sequence of C3u C3u (Homo sapiens) (P01024 672-1663, chain 2 of 2): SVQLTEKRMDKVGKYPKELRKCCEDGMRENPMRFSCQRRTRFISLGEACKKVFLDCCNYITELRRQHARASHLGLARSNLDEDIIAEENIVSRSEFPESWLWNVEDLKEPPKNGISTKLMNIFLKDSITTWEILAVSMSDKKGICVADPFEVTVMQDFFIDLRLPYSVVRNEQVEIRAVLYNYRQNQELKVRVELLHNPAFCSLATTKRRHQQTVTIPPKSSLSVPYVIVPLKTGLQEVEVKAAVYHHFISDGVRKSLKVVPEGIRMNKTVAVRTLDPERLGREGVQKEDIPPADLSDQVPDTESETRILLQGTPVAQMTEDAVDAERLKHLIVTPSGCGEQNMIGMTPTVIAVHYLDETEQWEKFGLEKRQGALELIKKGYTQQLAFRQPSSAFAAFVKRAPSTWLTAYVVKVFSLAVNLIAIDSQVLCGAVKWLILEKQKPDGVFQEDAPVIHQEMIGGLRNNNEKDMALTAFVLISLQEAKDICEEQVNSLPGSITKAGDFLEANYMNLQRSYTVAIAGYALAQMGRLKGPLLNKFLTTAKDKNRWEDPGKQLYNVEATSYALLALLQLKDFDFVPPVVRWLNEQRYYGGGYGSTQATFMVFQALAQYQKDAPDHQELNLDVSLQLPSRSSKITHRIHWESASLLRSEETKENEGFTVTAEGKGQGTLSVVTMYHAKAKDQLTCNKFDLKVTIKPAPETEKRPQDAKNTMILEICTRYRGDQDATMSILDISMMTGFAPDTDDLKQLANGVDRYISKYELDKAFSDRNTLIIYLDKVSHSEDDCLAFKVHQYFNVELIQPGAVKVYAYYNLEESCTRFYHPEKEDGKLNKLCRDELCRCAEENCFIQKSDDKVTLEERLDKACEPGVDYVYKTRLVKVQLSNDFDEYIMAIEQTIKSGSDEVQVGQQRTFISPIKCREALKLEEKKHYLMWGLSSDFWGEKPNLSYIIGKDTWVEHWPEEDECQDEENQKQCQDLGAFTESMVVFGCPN

Sequence of C3b C3b (Homo sapiens) (P01024 566-670): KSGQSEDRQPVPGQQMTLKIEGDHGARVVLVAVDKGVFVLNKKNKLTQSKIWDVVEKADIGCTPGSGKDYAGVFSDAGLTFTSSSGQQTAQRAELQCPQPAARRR
Sequence of Complement factor H (P08603 19-1231): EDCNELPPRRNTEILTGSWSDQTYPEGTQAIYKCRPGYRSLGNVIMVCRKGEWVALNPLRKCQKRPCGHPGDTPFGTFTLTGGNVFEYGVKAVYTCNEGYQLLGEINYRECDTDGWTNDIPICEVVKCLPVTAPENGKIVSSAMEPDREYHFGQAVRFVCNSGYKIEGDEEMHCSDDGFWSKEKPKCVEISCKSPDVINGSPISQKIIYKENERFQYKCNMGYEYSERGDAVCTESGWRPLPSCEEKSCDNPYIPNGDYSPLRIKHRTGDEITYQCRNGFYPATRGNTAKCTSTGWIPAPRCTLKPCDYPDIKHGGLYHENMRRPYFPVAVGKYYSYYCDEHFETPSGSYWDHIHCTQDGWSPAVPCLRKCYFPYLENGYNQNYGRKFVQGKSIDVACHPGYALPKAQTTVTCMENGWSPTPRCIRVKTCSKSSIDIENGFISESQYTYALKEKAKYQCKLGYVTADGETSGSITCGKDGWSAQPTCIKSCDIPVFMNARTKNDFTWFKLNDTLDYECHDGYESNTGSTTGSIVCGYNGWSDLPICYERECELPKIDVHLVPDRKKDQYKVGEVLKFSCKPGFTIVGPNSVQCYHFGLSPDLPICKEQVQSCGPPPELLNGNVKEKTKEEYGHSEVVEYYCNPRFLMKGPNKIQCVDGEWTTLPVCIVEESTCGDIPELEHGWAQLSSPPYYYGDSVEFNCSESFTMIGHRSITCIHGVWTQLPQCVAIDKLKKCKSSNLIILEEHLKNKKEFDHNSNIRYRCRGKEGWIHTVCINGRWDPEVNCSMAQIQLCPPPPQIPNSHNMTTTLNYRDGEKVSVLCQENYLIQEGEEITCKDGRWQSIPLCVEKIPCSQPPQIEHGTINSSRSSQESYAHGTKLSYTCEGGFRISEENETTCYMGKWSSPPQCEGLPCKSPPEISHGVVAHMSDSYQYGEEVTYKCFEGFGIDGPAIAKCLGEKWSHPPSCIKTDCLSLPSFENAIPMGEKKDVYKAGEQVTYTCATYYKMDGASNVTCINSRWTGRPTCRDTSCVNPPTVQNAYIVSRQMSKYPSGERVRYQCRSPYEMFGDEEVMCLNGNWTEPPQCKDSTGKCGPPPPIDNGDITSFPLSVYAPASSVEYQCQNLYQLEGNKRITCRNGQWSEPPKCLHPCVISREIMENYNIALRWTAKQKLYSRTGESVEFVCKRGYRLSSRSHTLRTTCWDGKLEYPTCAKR
Sequence of Complement factor H SCR-1/4 SCR-1/4 (P08603 19-264): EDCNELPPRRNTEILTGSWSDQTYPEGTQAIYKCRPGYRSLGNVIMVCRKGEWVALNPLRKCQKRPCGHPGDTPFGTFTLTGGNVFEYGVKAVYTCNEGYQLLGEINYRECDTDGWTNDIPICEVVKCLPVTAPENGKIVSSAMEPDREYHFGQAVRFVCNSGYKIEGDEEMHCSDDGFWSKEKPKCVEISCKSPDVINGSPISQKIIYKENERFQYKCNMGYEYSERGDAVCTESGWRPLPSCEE
Sequence of Complement factor H SCR-19/20 (P08603 1107-1231): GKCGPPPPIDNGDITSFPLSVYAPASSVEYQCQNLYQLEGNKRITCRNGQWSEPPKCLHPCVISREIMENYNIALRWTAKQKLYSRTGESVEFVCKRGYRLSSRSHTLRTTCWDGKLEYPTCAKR
Sequence of C-reactive protein (Homo sapiens) (P02741 19-223): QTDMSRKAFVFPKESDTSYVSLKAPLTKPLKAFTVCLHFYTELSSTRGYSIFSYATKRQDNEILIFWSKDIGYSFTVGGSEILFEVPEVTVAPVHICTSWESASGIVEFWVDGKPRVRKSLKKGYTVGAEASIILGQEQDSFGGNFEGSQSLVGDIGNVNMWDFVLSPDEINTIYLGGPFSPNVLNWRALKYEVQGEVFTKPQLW

Row | Substance | Kd [1] | Kd [2] | Kd (C3b C3b (Homo sapiens)) | Kd (C3u C3u (Homo sapiens))
1 | Complement factor H (from UniProt P08603) | 28 µM | 4.2 µM | 1.1 µM | 0.59 µM
2 | Complement factor H SCR-1/4 SCR-1/4 (from UniProt P08603) | – | – | 11.7 µM and 11 µM | –
3 | Complement factor H SCR-19/20 (from UniProt P08603) | – | – | 5.4 µM and 0.54 µM | –
